28 variants from the supplement of paper PMC11811203 can be followed below.

Sequences and labels used below:
B1: THAP1; numbered along this chain (parent)
chain: MVQSCSAYGCKNRYDKDKPVSFHKFPLTRPSLCKEWEAAVRRKNFKPTKYSSICSEHFTPDCFKRECNNKLLKENAVPTIFLCTEPHDKKEDLLEPQEQLPPPPLPPPVSQVDAAIGLLMPPLQTPVNLSVFCDHNYTVEDTMHQRKRIHQLEQQVEKLRKKLKTAQQRCRRQERQLEKLKEVVHFQKEKDDVSERGYVILPNDYFEIVEVPA

The data set covers variants of B1. The data set is described as follows: THAP1 transcriptional activity (GFP+/GFP- enrichment relative to wild-type constructs) (ratio to WT); higher = more THAP1 activity (PSMB5 reporter activation). The settings on record: with PSMB5 promoter-GFP reporter. A digest of the protocol: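 In duplicate, a lentivirus-delivered library with every residue from 2–213 of human THAP1 changed to all 20 amino acids was introduced at MOI ~0.3 into THAP1-knockout HEK-293T cells carrying endogenous PSMB5 tagged by mClover3 knock-in. Five days on, BFP+ cells were binned as GFP-dim or GFP-bright, and Illumina sequencing of genomic DNA amplicons counted each variant. Activity is the bright/dim read fold change, averaged over replicates and scaled to the mean of wild-type synonymous constructs.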
For MVQSCSAYGCKNRYDKDKPVSFHKFPLTRPSLCKEWEAAVRRKNFKPTKYSSICSEHFTPDCFKRECNNKLLKENAVPTIFLCTEPHDKKEDLLEPQEQLPPPPLPPPVSQVDAAIGLLMPPLQTPVNLSVFCDHNYTVEDTMHQRKRIHQLEQQVEKLRKKLKTAQQRCRRQERQLEKLKEVVHFQKEKDDVSERGYVILPNDYFEIVMVPA [E210M], the THAP1 transcriptional activity was 0.913.
In the case of MVQSCSAYGCKNRYDKDKPVSFHKFPLTRPMLCKEWEAAVRRKNFKPTKYSSICSEHFTPDCFKRECNNKLLKENAVPTIFLCTEPHDKKEDLLEPQEQLPPPPLPPPVSQVDAAIGLLMPPLQTPVNLSVFCDHNYTVEDTMHQRKRIHQLEQQVEKLRKKLKTAQQRCRRQERQLEKLKEVVHFQKEKDDVSERGYVILPNDYFEIVEVPA [S31M] it was 0.6; in that of MVQSCSAYGCKNRYDKDKPVSFHKFPLTRPSLCKEWEAAVRRKNFKPTKYSSICSEHFTPDCFKRECNNKLLKENAVPTIFLCTEPHDKKEDLLEPQEQLPPPPLPPPVSQVDAAIGLLMPPLQTPVNLSVFCCHNYTVEDTMHQRKRIHQLEQQVEKLRKKLKTAQQRCRRQERQLEKLKEVVHFQKEKDDVSERGYVILPNDYFEIVEVPA [D134C], 0.156.
Regarding MVQSCSAYGCKNRYDKDKPVSFHKFPLTRPSLCKEWEAAVRRKNFKPTKYSSICSEHFTPDCFKRECNNKLLKENAVPTIFLCTEPHHKKEDLLEPQEQLPPPPLPPPVSQVDAAIGLLMPPLQTPVNLSVFCDHNYTVEDTMHQRKRIHQLEQQVEKLRKKLKTAQQRCRRQERQLEKLKEVVHFQKEKDDVSERGYVILPNDYFEIVEVPA [D88H], the THAP1 transcriptional activity is 0.413.
Turning to MVQSCSAYGCKNRYDKDKPVSFHKFPLTRPSLCKEWEAAVRRKNFKPTKYSSICSEHFTPDCFKRECNNKLLKENAVPTIFLCTEPHDKKEDLLEPVEQLPPPPLPPPVSQVDAAIGLLMPPLQTPVNLSVFCDHNYTVEDTMHQRKRIHQLEQQVEKLRKKLKTAQQRCRRQERQLEKLKEVVHFQKEKDDVSERGYVILPNDYFEIVEVPA [Q97V], the THAP1 transcriptional activity was 0.752.
Turning to MVQSCSAYGCKNRYDKDKPVSFHKFPLTRPSLCKEWEAAVRRKNFKPTKYSSICSEHFTPDCFKRECNNKLLKENAVPTIFLCTEPHDKKEDLLEPQEQLPPPPLPPPVSQVDAAIGLLMPPLQTPVNLSVFCDHNYTVEDTMHQRKRIHQLEQQVEKLRKKLKTAQQRCRRQERQLEKLKEVVHFQKEKDDVSERGYVILPNDYFEIVEIPA [V211I], the THAP1 transcriptional activity turned out to be 1.34.
For MVQSCSAYGCKNRYDKDKPVSFHIFPLTRPSLCKEWEAAVRRKNFKPTKYSSICSEHFTPDCFKRECNNKLLKENAVPTIFLCTEPHDKKEDLLEPQEQLPPPPLPPPVSQVDAAIGLLMPPLQTPVNLSVFCDHNYTVEDTMHQRKRIHQLEQQVEKLRKKLKTAQQRCRRQERQLEKLKEVVHFQKEKDDVSERGYVILPNDYFEIVEVPA [K24I], the THAP1 transcriptional activity was determined as 0.0809.
Then MVQSCSAYGCKNRYDKDKPVSFHKFPLTRPSLCKEWEAAVRRKNFKPTKYSSICSEHFTPDCFKRECNNKLLKENAVPTIFLCTEPHDKKEDLLEPQEQLPPPPLPPPVSQVDAAIGLLMPPLQTPVNLSVFCDHNYTVEDTMHQRKRIHQLEQQVEKLRKKLKTAQQRCRRQERQLEKLKEVVHFQKEKDDVSERMYVILPNDYFEIVEVPA [G197M], with 1.03; and MVQSCSAYGCKNRYDKDKPVSFHKFPLTRPSLCKEWEAAVRRKNFKPTKYSSICSEHFTPDCFKRECNNKLLKENAVPTIFLCTEPHDKKEDLLEPQEQLPPPPLPPPVSQVDAAIGLLMPPLQTPVNLSVFCDHNYTVEDTMHQRKRIHQLEQQVEKLRKKLKTAQQRCRRQERQLEKLKEVVHFQKEKDDVSERWYVILPNDYFEIVEVPA [G197W], with 1.8.
For the variant MVQSCSAYGCKNRYDKDKPVSFHKFPLTRPSLCKEWEAAVRRKNFKPTKYSSICSEHFTPDCFKRECNNKLLKENAVPTIFLCTEPHDKKEDLLEPQEQLPPPPLPPPVSQVDAAIGLLMPPLQTPVNLSVFCDHNYTVEDTMHQRKRIHQLEQQVEKLRKKLKTAQQRCRRQERQLEKKKEVVHFQKEKDDVSERGYVILPNDYFEIVEVPA [L180K], the THAP1 transcriptional activity was determined as 0.367.
As to MVQSCSAYGCKNRYDKDKPVSFHKFPLTRPSLCKEWEAAVRRKNFKPTKYSSICVEHFTPDCFKRECNNKLLKENAVPTIFLCTEPHDKKEDLLEPQEQLPPPPLPPPVSQVDAAIGLLMPPLQTPVNLSVFCDHNYTVEDTMHQRKRIHQLEQQVEKLRKKLKTAQQRCRRQERQLEKLKEVVHFQKEKDDVSERGYVILPNDYFEIVEVPA [S55V], the THAP1 transcriptional activity worked out at 0.101.
For MVQSCSAYGCKNRYDKDKPVSFHKFPLTRPSLCKEWEAAVRRKNFKPTKYSSICHEHFTPDCFKRECNNKLLKENAVPTIFLCTEPHDKKEDLLEPQEQLPPPPLPPPVSQVDAAIGLLMPPLQTPVNLSVFCDHNYTVEDTMHQRKRIHQLEQQVEKLRKKLKTAQQRCRRQERQLEKLKEVVHFQKEKDDVSERGYVILPNDYFEIVEVPA [S55H], the THAP1 transcriptional activity came out at 0.0394.
With MVQSCSAYGCKNRYDKDKPVSFHKFPLTRPSLCKEWEAAVRRKNFKPTKYSSICSEHFTPDCFKRECNNKLLKENAVPTIFLCTEPHDKKEDLLEPQEQLPPPPLPPPVSQVDAAIGLLMPPLQTPVNLSVFCDHNYTVEDTMHQRKRIHQLEQQVEKLRKKLKTAQQRKRRQERQLEKLKEVVHFQKEKDDVSERGYVILPNDYFEIVEVPA [C170K], the THAP1 transcriptional activity was determined as 0.26.
In the case of MVQSCSAYGCKNRYDKDKPVSFHKFPLTRPSLCKEWEAAVRRKNFKPTKYSSICSEHFTPDCFKRECNNKLLKENAVPTIFLCTRPHDKKEDLLEPQEQLPPPPLPPPVSQVDAAIGLLMPPLQTPVNLSVFCDHNYTVEDTMHQRKRIHQLEQQVEKLRKKLKTAQQRCRRQERQLEKLKEVVHFQKEKDDVSERGYVILPNDYFEIVEVPA [E85R] it was 0.558; in that of MVQSCSAYGCKNRYDKDKPVSFHKFPLTRPSLCKEWEAAVRRKNFKPTKYSSICSEHFTPDCFKRECNNKLLKENAVPTIFLCTEPHDKKEDLLEPQEQLPPPPLPPPVSQVDAAIGLLMPPLQTPVNLSVFCDHNYTVEDTMHQRKRIHQLEQQVEKLRKKLKTAQQRCRRQECQLEKLKEVVHFQKEKDDVSERGYVILPNDYFEIVEVPA [R175C], 0.503; in that of MVQSCSAYGCKNRYDKDKPVSFHKFPLTRPSLCKEWEAAVRRKNFKPTKYSSICSEHFTPDCFKRECNNKLLKENAVPTIFLCTEPHDKKEDLLEPQEQLPPPPLPPPVSQVDAAIGLLMPPDQTPVNLSVFCDHNYTVEDTMHQRKRIHQLEQQVEKLRKKLKTAQQRCRRQERQLEKLKEVVHFQKEKDDVSERGYVILPNDYFEIVEVPA [L123D], 1.45.
In the case of MVQSCSAYGCPNRYDKDKPVSFHKFPLTRPSLCKEWEAAVRRKNFKPTKYSSICSEHFTPDCFKRECNNKLLKENAVPTIFLCTEPHDKKEDLLEPQEQLPPPPLPPPVSQVDAAIGLLMPPLQTPVNLSVFCDHNYTVEDTMHQRKRIHQLEQQVEKLRKKLKTAQQRCRRQERQLEKLKEVVHFQKEKDDVSERGYVILPNDYFEIVEVPA [K11P] it was 0.178; in that of MVQSCSAYGCKNRYDKDKPVSFHKFPLTRPSLCKEWEAAVRRKNFKPTKYASICSEHFTPDCFKRECNNKLLKENAVPTIFLCTEPHDKKEDLLEPQEQLPPPPLPPPVSQVDAAIGLLMPPLQTPVNLSVFCDHNYTVEDTMHQRKRIHQLEQQVEKLRKKLKTAQQRCRRQERQLEKLKEVVHFQKEKDDVSERGYVILPNDYFEIVEVPA [S51A], 0.32.
Regarding MVQSCSAYGCKNRYDKDKPVSFHKFPLTRPSLCKEWEAAVRRKNFKPTKYSSICSEHFTPDCFKRECNNKLLKENAVPTIFLCTEPHDKKEDLLEPQEQLPPPPLPPPVSQVDAAIGLLMPPLQTPVNLSVFCDHNYTVEDTMHQRKRIHQLEQQVEKLRKKLKTAQQRCRRQERQLEKLKEVVHFQKEKDDVSEKGYVILPNDYFEIVEVPA [R196K], the THAP1 transcriptional activity came out at 0.966.
On to MVQSCSAYGCKNRYDKDKPVSFHKFPLTRPSLCKEWEAAVRRKNFKPTKYSSICSEHFTPDCFKRECNNKLLKENAVPTIFLCTEPHDKCEDLLEPQEQLPPPPLPPPVSQVDAAIGLLMPPLQTPVNLSVFCDHNYTVEDTMHQRKRIHQLEQQVEKLRKKLKTAQQRCRRQERQLEKLKEVVHFQKEKDDVSERGYVILPNDYFEIVEVPA [K90C], for which the THAP1 transcriptional activity turned out to be 1.03.
Turning to MVQSCSAYGCKNRYDKDKPVSFHKFPLTRPSLCKEWEAAVRRKNFKPTKYSSICSEHFTPDCFKRECNNKLLKENAVPTIFLCTEPHDKKEDLLEPQEQLPPPPLPPPVSQVDAAIGLLMPPLQTTVNLSVFCDHNYTVEDTMHQRKRIHQLEQQVEKLRKKLKTAQQRCRRQERQLEKLKEVVHFQKEKDDVSERGYVILPNDYFEIVEVPA [P126T], the THAP1 transcriptional activity was found to be 0.484.
Then MVQSCSAYGCKNRYDKDKPVSFHKFPLTRPSLCKEWEAAVRRKNFKPTKYSSICSEHFTPDCFKRECNNKLLKENAVPTIFLCTEPHDKKEDLLEPQEQLPPPPLPPPVSQVDAAIGLLMPPLQTPVNLSVFCDHNYTVEDTMHQRKRIHQLEQQVEKLRKKLKTAQQRCRRQERQLEKLQEVVHFQKEKDDVSERGYVILPNDYFEIVEVPA [K181Q], with 0.514.
In the case of MVQSCSAYGCKNRYDKDKPVSFHKFPLTRPSLCKEWEAAVRRKNFKPTKYSSICSEHFTPDCFKRECNNKLLKENAVPTIFLNTEPHDKKEDLLEPQEQLPPPPLPPPVSQVDAAIGLLMPPLQTPVNLSVFCDHNYTVEDTMHQRKRIHQLEQQVEKLRKKLKTAQQRCRRQERQLEKLKEVVHFQKEKDDVSERGYVILPNDYFEIVEVPA [C83N] it was 1.13.
For MVQSCSAYGCKNRYDKDKPVSFHKFPLTRPSLCWEWEAAVRRKNFKPTKYSSICSEHFTPDCFKRECNNKLLKENAVPTIFLCTEPHDKKEDLLEPQEQLPPPPLPPPVSQVDAAIGLLMPPLQTPVNLSVFCDHNYTVEDTMHQRKRIHQLEQQVEKLRKKLKTAQQRCRRQERQLEKLKEVVHFQKEKDDVSERGYVILPNDYFEIVEVPA [K34W], the THAP1 transcriptional activity is 0.233.
For the variant MVQSCSAYGCKNRYDKDKPVSFHKFPLTRPSLCKEWEAAVRRKNFKPTKYSSICSEHFTPDCFKRECNNKLLKENAVPTIFLCTEPHDKKEDLLEPQEQLPPPPLPPPVSQVDAAIGLLMPPLQTPVNLSVFCDHNYTVEDTMHQRKRIHQLEQQVEKLRKKLKTAQQRCRRQERQLEKLKEVVHFQKEKPDVSERGYVILPNDYFEIVEVPA [D191P], the THAP1 transcriptional activity was determined as 1.02.
As to MVQSCSAYGCKNRYDKDKPVSFHKFPLTRPSLCKEWEAAVRRKNFKPTKYSSICSEHFTPDCFKRECNNKLLKENAVPTIFLCTEPHDKKEDLLEPQEQLPPPPLPPPVSPVDAAIGLLMPPLQTPVNLSVFCDHNYTVEDTMHQRKRIHQLEQQVEKLRKKLKTAQQRCRRQERQLEKLKEVVHFQKEKDDVSERGYVILPNDYFEIVEVPA [Q111P], the THAP1 transcriptional activity was found to be 0.993.
Then MVQSCSAYGCKNRYDKDKPVSFHKFPLDRPSLCKEWEAAVRRKNFKPTKYSSICSEHFTPDCFKRECNNKLLKENAVPTIFLCTEPHDKKEDLLEPQEQLPPPPLPPPVSQVDAAIGLLMPPLQTPVNLSVFCDHNYTVEDTMHQRKRIHQLEQQVEKLRKKLKTAQQRCRRQERQLEKLKEVVHFQKEKDDVSERGYVILPNDYFEIVEVPA [T28D], with 0.202; and MVQSCSAYGCKNRYDKDKPVSFHKFPLTRPSLCKEWEAAVRRKNFKPTKYSSICSEHFTNDCFKRECNNKLLKENAVPTIFLCTEPHDKKEDLLEPQEQLPPPPLPPPVSQVDAAIGLLMPPLQTPVNLSVFCDHNYTVEDTMHQRKRIHQLEQQVEKLRKKLKTAQQRCRRQERQLEKLKEVVHFQKEKDDVSERGYVILPNDYFEIVEVPA [P60N], with 0.844.
